Where no end group is shown, it is not given here.

The term pIC50 denotes the negative decadic logarithm of the IC50, by convention in mol/L. A low value points to a large IC50.

The labels stand for the following.
T1: LGR7 (leucine-rich repeat-containing GPCR 7) (human) (UniProt Q9HBX9)
T1 sequence (looked up): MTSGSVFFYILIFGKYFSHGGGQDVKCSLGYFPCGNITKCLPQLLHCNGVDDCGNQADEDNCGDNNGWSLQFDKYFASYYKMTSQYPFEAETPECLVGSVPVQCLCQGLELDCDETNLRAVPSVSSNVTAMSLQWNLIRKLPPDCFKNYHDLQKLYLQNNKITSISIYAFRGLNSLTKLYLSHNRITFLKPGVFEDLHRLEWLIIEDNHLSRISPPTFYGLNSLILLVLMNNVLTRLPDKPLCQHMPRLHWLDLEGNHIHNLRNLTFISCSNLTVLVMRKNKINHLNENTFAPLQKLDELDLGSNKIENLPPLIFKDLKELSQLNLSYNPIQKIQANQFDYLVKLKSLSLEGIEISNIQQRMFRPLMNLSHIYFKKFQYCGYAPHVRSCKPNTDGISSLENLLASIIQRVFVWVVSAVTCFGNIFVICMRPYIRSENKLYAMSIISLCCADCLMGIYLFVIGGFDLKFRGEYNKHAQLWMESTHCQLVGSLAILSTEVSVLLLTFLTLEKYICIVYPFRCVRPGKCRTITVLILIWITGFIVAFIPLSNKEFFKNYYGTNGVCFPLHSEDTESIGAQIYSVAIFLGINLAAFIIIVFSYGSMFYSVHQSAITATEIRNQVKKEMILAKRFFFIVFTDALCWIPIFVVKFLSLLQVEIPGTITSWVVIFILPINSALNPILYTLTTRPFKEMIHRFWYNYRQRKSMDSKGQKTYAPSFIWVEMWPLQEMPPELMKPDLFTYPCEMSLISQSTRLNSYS

T2: LGR7 (leucine-rich repeat-containing GPCR 7) (human, UniProt Q9HBX9 1-757)
T2 construct: whole, on cells; The methods say only 'recombinant LGR7' stably expressed in HEK293T cells; also called RFXR1; recombinant LGR7
T2 sequence (looked up): T1 sequence (looked up)

B1: RLN2 T^A16A (ligand, not shown: small tags and cut ends)
chain 1: SWMEEVIKLCGRELVRAQIAICGMSTWSHHHHHH
chain 2: QLYSALANKCCHVGCAKRSLARFC
modifications: not fully specified; ends and bridges not checked; also: N-terminal Myc epitope tag
notes: Construct with the 8-amino acid linker, processed to the mature two-chain form
B2: WT RLN2 (recombinant wild type human RLN2, Myc- and His6-tagged) (ligand, not shown: small tags and cut ends)
chain 1: B1 chain 1
chain 2: QLYSALANKCCHVGCTKRSLARFC
notes: also called wild type RLN2; wild type peptide
B3: RLN2 R^A22A (ligand, not shown: small tags and cut ends)
chain 1: B1 chain 1
chain 2: QLYSALANKCCHVGCTKRSLAAFC
modifications: not fully specified; ends and bridges not checked; also: N-terminal Myc epitope tag
notes: as for B1
B4: RLN2^A19-20 (ligand, not shown: small tags and cut ends)
chain 1: B1 chain 1
chain 2: QLYSALANKCCHVGCTKRAAARFC
notes: It is read here as both residues changed to alanine
B5: RLN2 R^A18A (ligand, not shown: small tags and cut ends)
chain 1: B1 chain 1
chain 2: QLYSALANKCCHVGCTKASLARFC
B6: RLN2^A22-23 (ligand, not shown: small tags and cut ends)
chain 1: B1 chain 1
chain 2: QLYSALANKCCHVGCTKRSLAAAC
notes: as for B4
B7: WT RLN3 (recombinant human relaxin 3, Myc- and His6-tagged) (ligand, not shown: small tags and cut ends)
chain 1: RAAPYGVRLCGREFIRAVIFTCGGSRWHHHHHH
chain 2: DVLAGLSSSCCKWGCSKSEISSLC
modifications: not fully specified; ends and bridges not checked; also: N-terminal Myc epitope tag
B8: WT INSL3 (recombinant human insulin-like 3, Myc- and His6-tagged) (ligand, not shown: small tags and cut ends)
chain 1: PTPEMREKLCGHHFVRALVRVCGGPRWSTEAHHHHHH
chain 2: AAATNPARYCCLSGCTQQDLLTLCPY
B9: Nontagged human RLN2 peptide (ligand)
chain 1: SWMEEVIKLCGRELVRAQIAICGMSTWS
chain 2: QLYSALANKCCHVGCTKRSLARFC
modifications: not fully specified (bridges); ends and bridges not checked
notes: Used as a standard; also called Nontagged RLN2; nontagged wild type RLN2 peptide

The target in the first test is T3, LGR8 (leucine-rich repeat-containing GPCR 8) (human, UniProt Q8WXD0 1-754). The test is described as follows: cell-based or functional assay.
T3 sequence (Q8WXD0 whole entry): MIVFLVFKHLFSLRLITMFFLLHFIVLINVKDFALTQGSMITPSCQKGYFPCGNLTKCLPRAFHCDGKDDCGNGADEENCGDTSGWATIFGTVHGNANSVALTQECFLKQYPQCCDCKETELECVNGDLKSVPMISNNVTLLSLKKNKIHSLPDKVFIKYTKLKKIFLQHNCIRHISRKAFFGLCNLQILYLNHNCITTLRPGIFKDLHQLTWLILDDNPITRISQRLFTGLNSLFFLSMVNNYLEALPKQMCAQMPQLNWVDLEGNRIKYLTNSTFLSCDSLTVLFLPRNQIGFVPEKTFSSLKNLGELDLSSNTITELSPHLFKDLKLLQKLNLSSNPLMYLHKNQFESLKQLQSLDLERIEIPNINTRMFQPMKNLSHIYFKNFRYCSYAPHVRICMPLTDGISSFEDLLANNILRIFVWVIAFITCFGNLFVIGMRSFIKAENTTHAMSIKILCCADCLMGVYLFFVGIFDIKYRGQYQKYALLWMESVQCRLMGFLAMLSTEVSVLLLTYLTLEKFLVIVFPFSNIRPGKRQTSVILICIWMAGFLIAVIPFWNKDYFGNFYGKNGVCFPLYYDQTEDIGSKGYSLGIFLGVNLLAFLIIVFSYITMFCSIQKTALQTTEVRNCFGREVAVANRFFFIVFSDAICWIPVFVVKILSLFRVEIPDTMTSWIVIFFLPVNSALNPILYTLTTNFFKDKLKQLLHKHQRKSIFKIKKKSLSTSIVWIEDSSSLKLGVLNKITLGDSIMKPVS
For B1, the “maximum LGR8-activation activity (cAMP production), against wild type RLN2” value worked out at 2 fold.

Another test addresses T3, LGR8 (leucine-rich repeat-containing …). Nature of the test: competition with 125I-RLN2 tracer on LGR8-expressing HEK293T cells. The method, then: (§1) To determine the binding characteristics of wild type and mutant peptides, HEK293T cells expressing LGR7 or LGR8 were grown to 90% confluence, collected by centrifugation at 3000×g for 2 min, and washed two times in 2 ml of ice-cold binding buffer. Cells were resuspended in ice-cold binding buffer, and aliquots of cell suspension were incubated with increasing doses of purified recombinant peptides in the presence of 0.025 pmol of ¹²⁵I-labeled RLN2 tracer (Phoenix Pharmaceuticals, Burlingame, Calif.) at room temperature for 2 h. After washing three times in an ice-cold binding buffer, radioactivity bound to the cells was measured using a y-counter (EG&G Wallace, Gaithersburg, Md.). Total binding was determined in the absence, and nonspecific binding in the presence, of 25 nmol of unlabeled RLN2. In regular assays, total binding was ˜30,000 cpm, and nonspecific binding amounted to less than 20% of the total binding. Data points were collected in triplicate, and similar results were obtained in at least two independent assays.
As to B2, the pIC50 was found to be 7.9.
B3: the pIC50 was 6.8.
On the same count and under the same terms, the value for B1 was 7.74; that for B4 was 7.51.
On to B5, for which the pIC50 worked out at 7.46.

The next test has the same target. The test is described as follows: competition with 125I-RLN2 on LGR8-expressing HEK293T cells (Table 2 cell: ND, pIC50 not measurable). The procedure: as §1
In the case of B6, the binding result is “no binding”.

The target in the next test is T1, LGR7 (leucine-rich repeat-containing GPCR 7) (human). Nature of the test: cell-based or functional assay.
In turn, WT RLN2 (His1) (ligand) came in with a pEC50, stimulation of cAMP production in LGR7-expressing HEK293T cells of 8.66.
As to WT RLN2 (His2) (ligand), the pEC50, stimulation of cAMP production in LGR7-expressing HEK293T cells was 8.77.
Still for that read-out and setting: the value for B7 was 7.73.

The next test deals with LGR8 (leucine-rich repeat-containing GPCR 8) (human) (UniProt Q8WXD0). Nature of the test: cell-based or functional assay.
Chain of LGR8 (leucine-rich repeat-containing GPCR 8) (human) (Q8WXD0 whole entry): as above
Take B8: the pEC50, stimulation of cAMP production in LGR8-expressing HEK293T cells was found to be 9.03.

The target of the next test is T2, LGR7 (leucine-rich repeat-containing …). Nature of the test: competition with 125I-RLN2 tracer on LGR7-expressing HEK293T cells. The procedure: as §1
In turn, B2 showed a pIC50 of 8.72.
B3 showed a pIC50 of 8.42.
Turning to B1, the pIC50 was found to be 8.4. The pIC50 values of the last two molecules are within 0.2 log units of each other.
On to B4, for which the pIC50 worked out at 8.21.
Molecule B5 returned a pIC50 of 8.42.
B6: the pIC50 was found to be 7.5.
The same measure, in the same setting: the result for B9 reads 8.78.

The target is the same in another test. The test is described as follows: cell-based or functional assay.
As to B2, the “pEC50, stimulation of cAMP production in LGR7-expressing HEK293T cells” value (from here on “pEC50 … in LGR7-expressing HEK293T cells”) stood at 9.3.
On to B3, for which the “pEC50 … in LGR7-expressing HEK293T cells” value is 10.
With B1, the “pEC50 … in LGR7-expressing HEK293T cells” value turned out to be 9.75.
The same measure, in the same setting: the value for B4 was 8.56; that for B5 was 9.67.
Regarding B6, the “pEC50 … in LGR7-expressing HEK293T cells” value turned out to be 8.87.
Still for that read-out and setting: the result for B9 reads 6.53.

For another test, the target named is T3, LGR8 (leucine-rich repeat-containing …). The test is described as follows: cell-based or functional assay. This is another data set of the same source.
As to B2, the “pEC50, stimulation of cAMP production in LGR8-expressing HEK293T cells” value (from here on “pEC50 … in LGR8-expressing HEK293T cells”) worked out at 7.41.
For B3, the “pEC50 … in LGR8-expressing HEK293T cells” value turned out to be 7.51.
On to B1, for which the “pEC50 … in LGR8-expressing HEK293T cells” value was found to be 8.04.
For the molecule B4, the “pEC50 … in LGR8-expressing HEK293T cells” value came to 8.41.
As for B5, the “pEC50 … in LGR8-expressing HEK293T cells” value was found to be 7.56.

These data come from patent US20130244938A1 (Stanford University, published 2013).
